Results as given in patent US20250121075A1, “ALPHA-FETOPROTEIN BIOCONJUGATES FOR DISEASE TREATMENT” (priority 2021, published 2025).

B1: AFP-ABZ982 DPR 5.51: AFP-ABZ982 bioconjugate, average DPR 5.51 (conjugate, UniProt P02771 19-609, looked up)
Alpha-fetoprotein: RTLHRNEYGIASILDSYQCTAEISLADLATIFFAQFVQEATYKEVSKMVKDALTAIEKPTGDEQSSGCLENQLPAFLEELCHEKEILEKYGHSDCCSQSEEGRHNCFLAHKKPTPASIPLFQVPEPVTSCEAYEEDRETFMNKFIYEIARRHPFLYAPTILLWAARYDKIIPSCCKAENAVECFQTKAATVTKELRESSLLNQHACAVMKNFGTRTFQAITVTKLSQKFTKVNFTEIQKLVLDVAHVHEHCCRGDVLDCLQDGEKIMSYICSQQDTLSNKITECCKLTTLERGQCIIHAENDEKPEGLSPNLNRFLGDRDFNQFSSGEKNIFLASFVHEYSRRHPQLAVSVILRVAKGYQELLEKCFQTENPLECQDKGEEELQKYIQESQALAKRSCGLFQKLGEYYLQNAFLVAYTKKAPQLTSSELMAITRKMAATAATCCQLSEDKLLACGEGAADIIIGHLCIRHEMTPVNPGVGQCCTSSYANRRPCFSSLVVDETYVPPAFSDDKFIFHKDLCQAQGVALQTMKQEFLINLVKQKPQITEEQLEAVIADFSGLLEKCCQGQEQEVCFAEEGQKLISKTRAALGV
modifications: ABZ982 toxin conjugate, DPR 5.51
B2: AFP-ABZ1827 DPR 3.35: AFP-ABZ1827 bioconjugate, average DPR 3.35 (conjugate, UniProt P02771 19-609, looked up)
Alpha-fetoprotein: B1 Alpha-fetoprotein
modifications: ABZ1827 toxin conjugate, DPR 3.35
B3: AFP-ABZ982 DPR 6.28: AFP-ABZ982 bioconjugate, average DPR 6.28 (conjugate, UniProt P02771 19-609, looked up)
Alpha-fetoprotein: B1 Alpha-fetoprotein
modifications: ABZ982 toxin conjugate, DPR 6.28
B4: AFP-ABZ982 DPR 2.50: AFP-ABZ982 bioconjugate, average DPR 2.50 (conjugate, UniProt P02771 19-609, looked up)
Alpha-fetoprotein: B1 Alpha-fetoprotein
modifications: ABZ982 toxin conjugate, DPR 2.50
B5: AFP-ABZ982 DPR 3.84: AFP-ABZ982 bioconjugate, average DPR 3.84 (conjugate, UniProt P02771 19-609, looked up)
Alpha-fetoprotein: B1 Alpha-fetoprotein
modifications: ABZ982 toxin conjugate, DPR 3.84
B6: AFP-ABZ1827 DPR 4.40: AFP-ABZ1827 bioconjugate, average DPR 4.40 (conjugate, UniProt P02771 19-609, looked up)
Alpha-fetoprotein: B1 Alpha-fetoprotein
modifications: ABZ1827 toxin conjugate, DPR 4.40
B7: AFP-ABZ1827 DPR 5.88: AFP-ABZ1827 bioconjugate, average DPR 5.88 (conjugate, UniProt P02771 19-609, looked up)
Alpha-fetoprotein: B1 Alpha-fetoprotein
modifications: ABZ1827 toxin conjugate, DPR 5.88

What follows are molecules tested on SKOV3 cells (assay: Cytotoxicity of AFP-ABZ982 and AFP-ABZ1827 bioconjugates, 4 day incubation). Conditions: read-out: Average IC50 SKOV3 cells (n = 1); 4 days.
Format: cell-based, human
Protocol: (§1) Bioconjugates containing ABZ981 with two different release functionalities (AFP-ABZ982 and AFP-ABZ1827) were subsequently prepared at DPRs of 2.5 to 6.3. Cells were incubated for 4 days in the presence of the compounds over an 8-point concentration range, with each concentration tested in triplicate. Two experiments performed using freshly thawed U937 cells gave similar results to U937 cells maintained in culture.
B1 gave an IC50 of 17.5 nM. B2 was tested, and the IC50 was 66.4 nM. For B3, the IC50 was 37 nM. In the case of B4, the IC50 is reported as 56.1 nM. For B5, the IC50 was 35.5 nM. For B6, the IC50 was 58.8 nM. Molecule B7 has an IC50 of 35.6 nM.

These molecules were tested on U937 cells in the same assay as above. Conditions: freshly thawed cells, 4 days; read-out: Average IC50 U937 freshly thawed cells (n = 2).
Format: cell-based, human
Protocol: as §1
B1 gave an IC50 of 1.71 nM. In the case of B2, the IC50 is reported as 7.07 nM. With B4 the IC50 was 5.25 nM. In the case of B5, the IC50 is reported as 5.29 nM. Molecule B6 has an IC50 of 5.98 nM. B7 was tested, and the IC50 was 2.93 nM.

Same assay, conditions: read-out: Average IC50 U937 cultured cells (n = 1); cells maintained in culture, 4 days
In the case of B1, the IC50 is reported as 2.01 nM. B2 showed an IC50 of 5.52 nM. B3 gave an IC50 of 6.55 nM. For B4, the IC50 was 5.22 nM. With B5 the IC50 was 4.49 nM. Molecule B6 has an IC50 of 7.47 nM. In the case of B7, the IC50 is reported as 2.04 nM.
